Experimental findings from the supplement of paper PMC10567573 are described below.

± gives the standard deviation.

The nature of this data set: protein stability index of a GFP-peptide fusion (GPS, HEK-293T) (PSI 1-6); higher = more stable. As to conditions: c terminus: a fixed tail appended.
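Further: 24-mer peptide tiles fused after GFP, lentivirally expressed, FACS-sorted into six equal bins by GFP/DsRed ratio, decoded by Illumina sequencing, PSI is the read-weighted mean bin number.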

For the sequence AQLRDAVQSLQLSPRTRGSWSQPQ [RASAL3], the protein stability index (treatment: DMSO) was determined as 3.65 ± 0.15 and the protein stability index (treatment: MLN4924 1 uM, 8 h) is 3.6 ± 0.35.

Turning to ARRDAKKLVRSPSGLRMVPEHRAF [ZFYVE21], the protein stability index is, setting by setting: (treatment: DMSO) 3.11 ± 0.31; (treatment: MLN4924 1 uM, 8 h) 3.56 ± 0.17.

The sequence ARSPSGPSGSLENGTKADGKDAKT [TRIM29] gave a protein stability index (treatment: DMSO) of 5.4 ± 0.19 and a protein stability index (treatment: MLN4924 1 uM, 8 h) of 5.54 ± 0.094.

For ARTCAKQNINAPAPATTSSWEVVR [C22orf31], the protein stability index reads like this: (treatment: DMSO) 3.04 ± 0.4; (treatment: MLN4924 1 uM, 8 h) 3.22 ± 0.32.

For the sequence ARYGHLDVVEYLVDRCGASVEAGG [FEM1A], the protein stability index (treatment: DMSO) was found to be 2.81 ± 0.16 and the protein stability index (treatment: MLN4924 1 uM, 8 h) worked out at 2.98 ± 0.43.

In the case of ASGLGLEITTQFLIYASYFALIAV [SLC19A2], the protein stability index was 3.26 ± 0.26 (treatment: DMSO) and 3.13 ± 0.47 (treatment: MLN4924 1 uM, 8 h).

As to ASGQGPMCNVKAPLGSPSPRPRRA [ADAMTS4], the protein stability index is 4.88 ± 0.29 (treatment: DMSO) and 5.13 ± 0.15 (treatment: MLN4924 1 uM, 8 h).

With ASKDPREVREARDHKEPKEEINKN [EHMT1], the protein stability index was found to be 5.5 ± 0.2 (treatment: DMSO) and 5.66 ± 0.29 (treatment: MLN4924 1 uM, 8 h).

As for ASNRIIGAKDHASIQMNVAEVSWE [RPS21], the protein stability index was determined as 3.63 ± 0.44 (treatment: DMSO) and 3.63 ± 1.4 (treatment: MLN4924 1 uM, 8 h).

In the case of ATGMFLQYTVPGTEGVTQLKLTVV [ZFYVE21], the protein stability index by setting is: (treatment: DMSO) 3.29 ± 0.56; (treatment: MLN4924 1 uM, 8 h) 2.9 ± 0.46.

For the sequence ATGPMGMRGFKGDRGPKGEKGEKG [SCARA5], the protein stability index is, setting by setting: (treatment: DMSO) 5.22 ± 0.24; (treatment: MLN4924 1 uM, 8 h) 5.43 ± 0.34.

Turning to ATPEQGLSAFYLSYFDMLYPEDSS [SPDEF], the protein stability index by setting is: (treatment: DMSO) 2.75 ± 0.48; (treatment: MLN4924 1 uM, 8 h) 2.8 ± 0.41.

As to ATYRSLLEGQDAKMIGFPSSAGSV [KRT13], the protein stability index is, setting by setting: (treatment: DMSO) 3.22 ± 0.4; (treatment: MLN4924 1 uM, 8 h) 3.54 ± 0.24.

In the case of AVNLIESGACGAFVHGLEDEMYEV [INTS4], the protein stability index was 3.41 ± 0.24 (treatment: DMSO) and 3.45 ± 0.33 (treatment: MLN4924 1 uM, 8 h).

For AVPTDEARAFAEKNGLSFIETSAL [RAB11A], the protein stability index (treatment: DMSO) stood at 2.9 ± 0.34 and the protein stability index (treatment: MLN4924 1 uM, 8 h) worked out at 3.37 ± 0.52.

Turning to AVVQLYLALPPGAEHWTKEHCGAV [WAS], the protein stability index runs as follows: (treatment: DMSO) 3.03 ± 0.59; (treatment: MLN4924 1 uM, 8 h) 2.71 ± 0.31.

For the sequence AVVVLDQGSRHWQKLREESAARVV [DUSP5], the protein stability index by setting is: (treatment: DMSO) 2.85 ± 0.34; (treatment: MLN4924 1 uM, 8 h) 2.72 ± 0.23.

In the case of AWPFYKPVDAEALELHDYHDIIKH [BRD3], the protein stability index runs as follows: (treatment: DMSO) 3.04 ± 0.17; (treatment: MLN4924 1 uM, 8 h) 3.24 ± 0.35.

On to AYRGNCKDVSRCVAERKYTQEQAR [SMOC2], for which the protein stability index is, setting by setting: (treatment: DMSO) 3.06 ± 0.19; (treatment: MLN4924 1 uM, 8 h) 3.38 ± 0.46.

Consider CCPTSREAAVEALELLGATYVDKK [FEM1A], for which the protein stability index (treatment: DMSO) came out at 4.28 ± 0.06 and the protein stability index (treatment: MLN4924 1 uM, 8 h) came out at 4.3 ± 0.049.

Take CETVTCCLFSERDAAGAPRDASDP [SMAD6]: the protein stability index (treatment: DMSO) was 4.49 ± 0.25 and the protein stability index (treatment: MLN4924 1 uM, 8 h) is 4.62 ± 0.12.

As to CFKGELPLRAVHINLEEKEKQIRS [PLEKHN1], the protein stability index is, setting by setting: (treatment: DMSO) 3.95 ± 0.18; (treatment: MLN4924 1 uM, 8 h) 3.96 ± 0.33.

In the case of CGSFQVTTGLQVPSAVRCLQKRGS [FSD1], the protein stability index is 2.96 ± 0.2 (treatment: DMSO) and 2.8 ± 0.17 (treatment: MLN4924 1 uM, 8 h).

In the case of CHEDVEALAAIYEEKEAWYREESD [DAPK3], the protein stability index was found to be 5.1 ± 0.22 (treatment: DMSO) and 5.12 ± 0.62 (treatment: MLN4924 1 uM, 8 h).

CKDSESNKHLCYVFDSEKCVSIPD [GULP1]: the protein stability index worked out at 3.27 ± 0.11 (treatment: DMSO) and 3.41 ± 0.35 (treatment: MLN4924 1 uM, 8 h).

CLGQLNLEQRSESVRRTRSKIGFG [SMAD6]: the protein stability index runs as follows: (treatment: DMSO) 3.06 ± 0.25; (treatment: MLN4924 1 uM, 8 h) 3.1 ± 0.35.

In the case of CLMIAAYKGHTDVVRYLLEQRADP [FEM1B], the protein stability index by setting is: (treatment: DMSO) 2.27 ± 0.14; (treatment: MLN4924 1 uM, 8 h) 2.35 ± 0.17.

Take CLRKYGNANVWKYFTDLFDYLPLT [PPP2CA]: the protein stability index is 2.4 ± 0.57 (treatment: DMSO) and 2 ± 0.31 (treatment: MLN4924 1 uM, 8 h).

Take CMYEHGEDTHQSPEPEDEPGGPGA [RSPH3]: the protein stability index came out at 5.42 ± 0.29 (treatment: DMSO) and 5.51 ± 0.17 (treatment: MLN4924 1 uM, 8 h).

In turn, CPTEPPDDSCQDQPGTNCALAIKV [ADAMTSL2] came in with a protein stability index (treatment: DMSO) of 4.95 ± 0.31 and a protein stability index (treatment: MLN4924 1 uM, 8 h) of 5.03 ± 0.41.

For CTWSIFQSIEYAGQQDQVKLHDFF [PPEF2], the protein stability index is, setting by setting: (treatment: DMSO) 2.54 ± 0.62; (treatment: MLN4924 1 uM, 8 h) 2.37 ± 0.46.

For CVATTGDITVSVSTSFLPELSSVH [FBXO3], the protein stability index (treatment: DMSO) was 2.23 ± 0.27 and the protein stability index (treatment: MLN4924 1 uM, 8 h) is 2.14 ± 0.23.

Regarding CVDRQEVAEITKQLPPVVPVSKPG [TCAP], the protein stability index was 4.7 ± 0.2 (treatment: DMSO) and 4.63 ± 0.15 (treatment: MLN4924 1 uM, 8 h).

Turning to CWDMQGKRFVAMKVVKSAQHYTET [SRPK2], the protein stability index is, setting by setting: (treatment: DMSO) 2.34 ± 0.34; (treatment: MLN4924 1 uM, 8 h) 2.54 ± 0.3.

In the case of DAETSKLIYDFIEDQGGLEAVRQE [WAS], the protein stability index amounted to 4.61 ± 0.24 (treatment: DMSO) and 4.76 ± 0.28 (treatment: MLN4924 1 uM, 8 h).

Take DAPEQRLRVMTTNIRSARGNNPNG [ELOA2]: the protein stability index is 4.84 ± 0.23 (treatment: DMSO) and 4.95 ± 0.23 (treatment: MLN4924 1 uM, 8 h).
